From the DeepSol protein solubility set

Test: soluble on expression in E. coli; label from the status in PepcDB or PDB records

Sequence	soluble on expression in E. coli
MAHHHHHHMATVYTSVPGKDFAKGVTLDEANRIVRVDAGLPLLSALQVGMIVRSIGGVPVGDGRCEQARHHSNRSQVLVVLGAPPKDEFDLCSDDDDAANLKPPSTLPPLPPEFNNSVAQNSSGVVYEATVKCGEGGCVIIMCEGANPALAITLAAEKAKAEVMYIDTVARMKTRQTLENAGEVLKKSLEKGLWIYVEQATKSITLLRQISDCIMEVRAAGKMHAQSRVLLMCEPHPHFPEALMRGSVTLRSRLQNNNMAEVDIREDLSESAHRKQAIHGDDVASSETAAKPEVTKTRKKVRISNQVNIVHLEKSTFMEMSASAQPPLESGTSHDGISRVAKYSFGSNENLISLSYVRDHRFAIGTNSGYVVLIDRNGLPLIQFRPHKACIWDVSFSSQFDFSTACEDGTSVIYKYSLANQELTTVSVASFQNDVFAVTYANPNDVNSGVLSGGLSATVCVLHSDRQNSSFIACRTSIQAMCATQMNQVIVGGGTGACTLIDTNHCVVTDITHAHNKKVPAVGTHGNVAVTGGFDCVLRLWDVRNGFHLTSQRQLNEVITAVAMNERYISACSGSSLYVWDPRKMDRTLAVKANAWKDLTRGLVLDGSTIVTASVDGVARIWEVS	not soluble
MSDPDLELASRREIYQRIADTPGVHFRALLDELKYAQGTLQYQLRWLADKGLIDVSDDGKYTRYYPAAEFDEADRTVMNALRREYSRRILAHLLTDSPLSTTELSERLDKAQSTVSWHLSKLAEADLVTKERDGRSVVYEVSDPDRVKYLYTVHRRSFTDKVVDRILGLWDSY	not soluble
MSLDTENVKYRSITTKIELDDLIESLKKAKYISIDTETSSLDTYTAKLIGISISFKEFEGYYIPIEAKGKIYIEKNYIIQKFNNLFESNPKIIGQNYKFDYKILKNNGFNPIPPYFDTMIAAYLIDTNSKVSLDFLAEKYLMHKNIKYEDVIQKNDNFANISLEMATSYSSEDADITFRLFNIFTKKLKEDKLDKLMHEIEMPFNKVIIEMEENGIYLDKEYLKEYGKELGKELEAIENEIIKSIGIDFNLNSPKQMHEILFEKLNLKLPEKMKKDSTDIKVLESLREQHESIENLIKYRQIAKLKSTYTDNLIELINYKTNRLHTSFIQTKTATGRITSINPNLQNIPIKDEKGRKIRKAFKPENGNIFISADYSQIELAILAHLSQDEVLIKAFENNKDIHTETASKLFKIEEKEITPNLRRIAKSINFGIIYRMSDFRLAKELGITKEEAKGFINSYFDSYPKIKEFIINQINFVRNAGYSETILKRRRYIKEINSNNYLERSAAERIAINSIIQGSAADIMKIAMVKVFNEFKSKKMESKILLQVHDEMLIESPIEEENEVKKILKIMMETAYTLNLPLRANIETGKSWGEIHEGHHHHHH	soluble
MGSDKIHHHHHHMRQFAKPTIVVSKCLEFDACRYNGEMIPDVTIRNLQPFVTFIPVCPEVEIGLGTPRETIRIVEEKGVNKLMQPSTREDLTGKMEQFSNKFLQTISDVDGFILKNRSPSCGTRDVKIYSGFEKAPAKGKGPGLFGGAVIKNFSHLPIEEEGRLSNFIIREHFLTRLFTIAYYKMMKRNKNMKDLVSFQSDNKYLFMAYNQVKQKELGRIIANHKNEKIEVVFENYEKTLYELFMRTPRYTSNVNVCEHIFGYFKTKLKKQEKDHFLDLIQKYKEKKIPLSSLLAILKSWALRFDEKYLLRQTYFEPYPEALVEISDSGKGRDY	not soluble
MSLEARGLNVTIMKLDPYINVDPGTMSPTQHGEVFVTQDGAETDLDLGHYERFIRTKMTKRNNFTTGKIYSEVLRKERRGDYLGATIQVIPHITNEIKDRVIAGAQGHDVVIVEVGGTVGDIESLPFLEALRQLAVQVGREHTLFMHLTLVPYIPTAGEVKTKPTQHSVKELLSIGIQPDVLICRSDRMIPPNERAKIALFCNVAERAVISLKDVNSIYQIPALLKSQGLDDFVCERFRLTCPEADLTEWEQVLYKQANPVGEVTIGMVGKYTELPDAYKSVNEALKHAGLTNRLSVNIKYIDSQDVETKGVEVLKGIDGILVPGGFGYRGVEGKIRTAQYARENKIPYLGICLGMQIALIEYARNVAGLTKANSSEFDKDCEQPVVALITEWQDAEGNTEVRTDESDLGGTMRLGAQQCHLVSGSRARELYGKETIEERHRHRYEVNNTLLPQIEKAGLKVTGLSADKKLVEIIEVPNHPWFVACQFHPEFTSTPRDGHPLFAGFVKAAYENHKKSVKEGHHHHHH	not soluble
MRDERLSKIISMFQAHIRGYLIRKAYKKLQDQRIGLSVIQRNIRKWLVLRNWQWWKLYSKVKPLL	soluble
MSLNRPLRIGIVVGELSGDTLGEGFIKAIRARYPDAEFVGIGGPKMNALGCQSLFDMEELAVMGLVEVLGRLPRLLKVKAELVKYFTANPPDVFVGIDAPDFNLRLELSLKQAGIKTVHYVSPSVWAWRQNRIHGIAAATHLVLAFLPFEKAFYDKFNVPCEFIGHTLADSIPLASDKLAARQLLGLDEQRRWLAVLPGSRGSEMKMLAEPFIATCQKLQARYPDLGFVVALVNAKRRAQFEQAWQQVAPELNFVLVDDTARNVITAADAVMLASGTVALECMLLKRPMVVGYRVNAFTAFLAKRLLKTPYVSLPNILAGEELVKELLQDHCTVDNLYHEVSRLLESDNQALMDKFTEMHQWIRKDADQQAAQAVLHLIQKEGHHHHHH	not soluble
MKTTLIKVIAASVTALFLSMQVYASGHTAHVDEAVKHAEEAVAHGKEGHTDQLLEHAKESLTHAKAASEAGGNTHVGHGIKHLEDAIKHGEEGHVGVATKHAQEAIEHLRASEHKSH	not soluble
MSNWKPNIPYNDLPPLPPKQDIESKTILKRCIAARASLARLKQAAELIPNQAMLINTLPVMEARASSEIENIVTTTDKLFQSLQMDTERQDPATKEALQYRTALFAGYESLTSRPLCTQTAIMVCNAIKHPYEMAIRKTGGTALKGGNSGNVVYTPPEGEETIRGKLANWERFIHESGDLDPLIIMAAAHYQFEAIHPFTDGNGRTGRILNSLLLIEKGLLDLPILYLSRYIIENRADYYRLLLGVTERQDWESWIIYILDGVADTADWTVSKIDAIRRLFEQTRQHIRTHAQGIYTHELVNLLFEQPYTRIANLEAAGIAKRQTASKYLKELSDIGVLQEIVIGRDKLFIHPRLMELLRGEGNSFTSFQSLVKA	not soluble
MDLSQGPVRAAQAAPQVLCTASVHHDHPHAIETLVEALGPVELELILLMASPQTDIPALLARAAAVLPGTRIVGCTTAGEISAAGYTEGEIVAIGMPRAYFKAQTMLIDDLTDYDAQAIIDRMIQTRNDLAAARPEWGHEFNFLLIDGLSTLEDRLVSDLAMGLGPVPLFGGSAGDGERFGTTFVFHEGRAHGNAAVLMQVRTRCPIQVFKTDHLIPTEKRMVVTGADPDRRLVHEINAEPAAREYARVLGKDPEQLTTFTFAAHPVVVRIGGQHHVRSIQRVAENGDLVFFSAIDEGLVLTLAEARDMREHLREELGRLAADGPPAVILGCDCLLRRMEAQQKQVLGALSDILRENRVVGFSTYGEQFNSMHVNQTLTGVAIYPPDDM	soluble
MAHHHHHHMHDANRFGGRTAYLREIGPIDHKKKGRLFKRDLPTLQFNVDVWCAQQTLRKQWKGRDWDVVEMPFEMAPKELQRVVPEKYTDVPIMTDPARHDYMNIRRKVFDREDMQDALFASGGAGQSPYPAIQRVDKAAMTLDKYL	soluble
MPIVMARDLEETASSSEDEEVISQEDHPCIMWTGGCRRIPVLVFHADAILTKDNNIRVIGERYHLSYKIVRTDSRLVRSILTAHGFHEVHPSSTDYNLMWTGSHLKPFLLRTLSEAQKVNHFPRSYELTRKDRLYKNIIRMQHTHGFKAFHILPQTFLLPAEYAEFCNSYSKDRGPWIVKPVASSRGRGVYLINNPNQISLEDNILVSRYINNPLLIDDFKFDMRLYVLVTSYDPLVIYLYEEGLARKCNWKMGNTMDKRRLPIYVQVL	not soluble
MLRTFRIGGIHPPENKLSAGKPVEVLPIPSQVVIPLGQHIGAPATATVKKGDEVKVGTIIAQAGGFVSANIHSSVSGKVLKIDNVYDSSGYPKPAVFISVEGDEWEEGIDRSPAIVKECNLDAKEIVAKISAAGIVGLGGATFPTHVKLSPPPGNKAEILIINAVECEPYLTSDHVLMLEHGEEIMIGVSILMKAIQVNKAVIGVENNKKDAIAHLTKLATAYPGIEVMPLKVQYPQGGEKQLIDAVIRKQVKSGALPISTGAVVQNVGTVFAVYEAVQKNKPLVERIVTVTGKKLSRPSNLLVRIGTPIAALIEAAGGLPENTGKIIGGGPMMGRALLSPDVPVTKGSSGVLILDREEAVRKPMRDCIRCAKCVGVCPMGLNPAFLMRDTLYKSWETAEKGNVVDCIECGSCSFTCPANRPLLDYIRQAKKTVMGIQRARKQLEHHHHHH	not soluble
MGSDKIHHHHHHMNTITPISTRRVTLALQGGGSHGAFTWGVLDRLLEEPRLRIEAVSGTSAGAMNAACLAHGLADSGRQGARDTLERFWTAISNAAAFSPIRRSPLAIWLGNWSVADSMGYLMSTAFGRALSPYQSNPLNINPLRETVERIIDFDAVRACRDLSLFVTATNVHTGRPRIFTREDLSVDAVLASACLPHLFQAVEIDGVPYWDGGYVGNPALWPLIYETDVRDLLLVRINPLIREQTPMTGLEIADRLNEITFNASMFREMRAIAFVGRMLDEGSLDPERYKRMLIHAIEAEDDLKSLGASSKLNAELPFLFHLRDIGRRAADDWLTKNLEKIGYESTVDVASAYL	not soluble
MEFKEYKGKNVDEAITNACIDLGIEAAKLEYEVIEKGSNGFLGIGSKPAIIKAKKNQSVEDIAREFLNKVFTAMELTVKIDIKIVENEKENIVNINIIGEDMGILIGKRGQTLDSLQYLVSLVINKECEKFNRVKLDTENYRERRKATLENLARNISLKVKRIKKPVALEPMNPYERRIIHSALQNDKFCTTKSEGDEPYRHVVVMLKKDAR	not soluble
MKGEIEGITDDGIGVRVIDKNGFEHKIEMLFDGEIVYHHQKGYPDNPKERTNEEDESVAQARRFARYHVYREKGYDTVPNPDNPDRIAAVLLALIGLDDQQFDQYFGMLYEQMASHERADVAPVLDLPQEVYSEEFIVYKQNVYLEESLDAMQDQLTQPATEVFGEENLQEFLQETGDGLVAKARSLVGGGTDEDEDASEEPSIPEADLSIADVSGLDTMYSTPEGYKTIEGEDPVSREPDARIETLPMGYTREQFRYHVGHNLICQIRDCFISMGVEPPAQYRLLGHGKFKYSAKYRDFDFYPDYWDYEANIPGYSSPV	not soluble
KQATMKNAALKQLTKDADEILHLIKVQLDNLTLPSCPLYEEVLDTQMFGLQKEVDFAVKLGLVDREDGKQIMLRLEKELSKLHEAFTLV	not soluble
MSLNSIKDVDLSEITAGKKYWNVERPVEEEVMYFLLIDRFHDGKERISIPSTTGFGNTDQLQARCGGTIQGVIKNLKYISALGFTSIWINPFLQNNPETYHGYSIENFLEVDAQWGTKEDIVELVAQAHKLHIKVFFDIVLNHTGNNWSYVKENPRYNKGKQYAVKAWRYPDRPIPAELRNLNLYGRKGGIVKWEETPETWDGDIFELKDLIQDDSEIGHATLEILIAVYSYWFAVTDCDGFRIDAAKHIPPKWLNTFVDAMKALTASVHKTSFFIFAEIISNQSYISKYHTIDGYLDFDFHFSFVPNMYGEKKRKSAIQSQPRPVDKVPIRFLDNHDQVGQMPKHRIAYRMKEKALCNLLRAFLCMPGIPCIYYGTEQGLKGKGILDGSIRECLFNPDGKEDILNLDSPYARVIKEGIHLRKKLNLYTGDFQSCEIMAAKSHRCIALQVNGLASSKLIVYNLGPHNEVVSIKLSSPLTRTNKLVVYLYSNGDADNDDKTVVNDILHNITMHPYGFKVLELLNHQESVNEGHHHHHH	soluble
MGSDKIHHHHHHADFVSDYIWRGAYQNSGFSVQPTLGLSYGNLSLSAWGSQSLTKTDGAQEFDINLSYTIGGLGITVTDYWWNGITMPYGDYKHDHHFEGTLAYNFGENFPLTLSWSTMFAGGDDNKDGDRAYSTYINASYNIACPAEITLTPSVGFTPWKGMYDADGAAFTDIALKASKNINITDHFSLPLFVQAIVSPSFDKTYLIAGLSIGF	not soluble
